Experimental data: publication PMC3589125 (Structure (London, England : 1993), 2012)
Peptide text beside a SMILES is read from it.

B1: His-SAB (1–390) (domain or fragment)
chain: MDAALKRSRSEEPAEILPPARDEEEEEEEGMEQGLEEEEEVDPRIQGELEKLNQSTDDINRRETELEDARQKFRSVLVEATVKLDELVKKIGKAVEDSKPYWEARRVARQAQLEAQKATQDFQRATEVLRAAKETISLAEQRLLEDDKRQFDSAWQEMLNHATQRVMEAEQTKTRSELVHKETAARYNAAMGRMRQLEKKLKRAINKSKPYFELKAKYYVQLEQLKKTVDDLQAKLTLAKGEYKMALKNLEMISDEIHERRRSSAMGPRGCGVGAEGSSTSVEDLPGSKPEPDAISVASEAFEDDSCSNFVSEDDSETQSVSSFSSGPTSPSEMPDQFPAVVRPGSLDLPSPVSLSEFGMMFPVLGPRSECSGASSPECEVERGDRAEGA
B2: pepJIPhu(157–167) (peptide)
peptide: RPKRPTTLNLF
B3: JIP1 R160H (peptide)
peptide: RPKHPTTLNLF
B4: JIP1 R160Q (peptide)
peptide: RPKQPTTLNLF
B5: JIP1 T162G (peptide)
peptide: RPKRPGTLNLF
B6: pepSABhu(40–350) (peptide)
peptide: AVVRPGSLDLP
B7: pepATF2Hu(46–56) (peptide)
peptide: KHKHEMTLKFG
B8: SAB (1–390): recombinant SAB protein substrate for JNK kinase assays (protein)
chain: B1 chain
modifications: left off: His, end not stated, kept

Experiments:
JNK3α1 [1] = molecular target: T1, JNK3α1 (Homo sapiens, UniProt P53779); experiment: FRET displacement of labeled JIP1 peptide, JNK3α1; format: binding; conditions: FRET IC50 for displacement of labeled JIP1 peptide, Inactive JNK3α1
active JNK3α1 (39–422) = active JNK3α1 (39–422) (UniProt P53779)
Inactive JNK3α1, P53779 = experiment: FRET or BRET
Active JNK1β1 = Active JNK1β1 (UniProt P45983-3 1-384, phosphorylated in the activation loop by incubation with active MKK4 and MKK7); experiment: FRET or BRET
Inactive JNK1β1 = Inactive JNK1β1 (UniProt P45983-3 1-384); experiment: FRET or BRET
JNK3α1 (39–422) = JNK3α1 (39–422) (UniProt P53779-2 39-422); experiment: ITC
JNK3α1 [2] = molecular target: T1, JNK3α1; experiment: Km of protein substrates for JNK3α1; format: biochemical; conditions: read-out: Km for JNK3α1; protein substrate

| Molecule | IC50 (Active JNK1β1) [µM] | IC50 (Inactive JNK1β1) [µM] | Kd (JNK3α1 (39–422)) [µM] | dH (JNK3α1 (39–422)) [cal/mol] | also measured |
| --- | --- | --- | --- | --- | --- |
| CC(C)C[C@H](NC(=O)[C@H](CO)NC(=O)CNC(=O)[C@@H]1CCCN1C(=O)[C@H](CCCNC(=N)N)NC(=O)[C@@H](NC(=O)[C@@H](NC(=O)[C@H](C)N)C(C)C)C(C)C)C(=O)N[C@@H](CC(=O)O)C(=O)N[C@@H](CC(C)C)C(=O)N1CCC[C@H]1C(=O)O [pepSAB] (H-AVVRPGSLDLP-OH) |  |  |  |  | IC50 (JNK3α1 [1]): 834 ± 105 µM |
| CC(C)C[C@H](NC(=O)[C@H](CC(N)=O)NC(=O)[C@H](CC(C)C)NC(=O)[C@@H](NC(=O)[C@@H](NC(=O)[C@@H]1CCCN1C(=O)[C@H](CCCN=C(N)N)NC(=O)[C@H](CCCCN)NC(=O)[C@@H]1CCCN1C(=O)[C@@H](N)CCCN=C(N)N)[C@@H](C)O)[C@@H](C)O)C(=O)N[C@@H](Cc1ccccc1)C(=O)O [pepJIP] (H-RPKRPTTLNLF-OH) |  |  |  |  | IC50 (JNK3α1 [1]): 1.7 ± 0.4 µM |
| B1 |  |  |  |  | Km of SAB (1–390) as substrate of JNK3α1 (active JNK3α1 (39–422)): 0.77 µM |
| B2 | 0.68 ± 0.02 | 2.5 ± 0.1 | 0.8 ± 0.1 | -7650 | IC50 (Inactive JNK3α1, P53779): 1.7 µM |
| B3 |  |  | 11.7 ± 1 | -6710 |  |
| B4 |  |  | 32.1 ± 3.2 | -5460 |  |
| B5 |  |  | 4.9 ± 0.5 | -7110 |  |
| B6 | 386 ± 10 | 612 ± 21 | 17.2 ± 0.6 | -4020 | IC50 (Inactive JNK3α1, P53779): 834 µM |
| B7 | 169 ± 2 | 350 ± 12 |  |  |  |
| B8 |  |  |  |  | Km (JNK3α1 [2]): 770 ± 90 nM |
